Results: patent US20240417762A1, “MICROORGANISMS AND METHODS FOR PRODUCING REUTERIN” (Wisconsin Alumni Research Foundation, priority 2023, published 2024)

System: reuterin production
Test: Determination of reuterin formation during growth of L. reuteri ATCC PTA-6475 and its variants
Type: cell-based, Limosilactobacillus reuteri
Protocol: FIGS. 5A-5E. Reuterin production of L. reuteri ATCC PTA-6475 and its variants during the growth. Overnight cells were inoculated to reach an initial OD 0.1 in mMRS supplemented with 100 mM glucose and 40 mM glycerol. Supernatant was collected every hour during the growth at 37° C. and the reuterin concentrations were determined. The number of cells of each strain at each time point was normalized to an OD of 3. Data are shown as means±standard deviations for three independent experiments. Statistical significance was determined by unpaired t-test. * P<0.05; **** P<0.0001. In FIGS. 5C and 5D, “orf14” refers to orf14 from L. reuteri. In FIG. 5E, the origins of the orf14 genes (L. mucosae or L. reuteri) are indicated.
To characterize the reuterin production during growth, strains were cultured at 37° C. anacrobically in deMan-Rogosa-Sharpe medium (MRS; 288110, BD BioSciences) for 18 h, and then bacteria were sub-cultured to reach an initial OD600 of 0.1 in modified MRS (10 g peptone, 10 g beef extract, 5 g yeast extract, 2 g ammonium citrate dibasic, 2 g K2HPO4, 0.1 g MgSO4, 0.05 g MnSO4, and 1.0 g Tween 80 per liter) supplemented with 100 mM glucose. Cultures were incubated anaerobically at 37° C. Strains harboring pSIP411 or its variants were grown in mMRS supplemented with 5 μg/mL erythromycin. Where applicable, induction peptide (10 ng/ml) (MAGNSSNFIHKIKQIFTHR (SEQ ID NO:34)) was added. Samples were collected every hour up to 8 hours. Cell density was monitored using GENESYS 20 visible spectrophotometer (Thermo Scientific) and reuterin production was measured as described in Zhang et al. 2020. Briefly, cell-free supernatants (50 μL) were mixed with 37.5 μL tryptophan (Sigma-Aldrich) in a 96 well plate, followed by an addition of 150 μL 37% HCl (Thermo scientific). After incubating at 37° C. for 20 min, OD560 was measured by GloMax plate reader (Promega). Two-fold dilutions of acrolein (06-722-501, ThermoFisher) were used to generate a standard curve to quantify reuterin (Doleyres et al. 2005). […]

| Molecule | increase in reuterin production compared to that in the wildtype strain (Orf14 overexpressed in L. reuteriΔΦ1ΔΦ2, following 5 h incubation, P<0.05) [fold] | reuterin production (growth at 37° C. in mMRS with 100 mM glucose and 40 mM glycerol, supernatant, normalized to OD 3) | higher reuterin production compared to the overexpression of native Orf14 (overexpression in L. reuteri (FIG. 5E)) [fold] |
| --- | --- | --- | --- |
| Orf14: Limosilactobacillus reuteri Orf14 phage protein (SEQ ID NO:2), overexpressed from pSIP-orf14 (protein, listed as Lactobacillus reuteri) VIYMNKIKRLCKKYQQVIYTLFAVLVIISVVYFALHGFDSFVKWATTDVGSVADWAGSIGTILAFVAVIWQQGRQENITRAVHIEESRPRFSLTYTPKPVLKTRVLFWGNGRTAVNINEILGSRSAENYRFISIENISNNVVYDYSIILKYHSNDNARVRKDYWSSHGLFPRRSVAIVPKFMGTDKDKIGNYIYDELLVKFTTPANEVGFFISKNINNAQTDSSFGKSQYYFVRGSHVKRVTAINTDKMIDVDSSICRKLDKEFDEIIGITSLGEINENGKLS | 3 | rescued reuterin production | – |
| Orf14-mucosae: Limosilactobacillus mucosae Orf14 protein (SEQ ID NO:4), natural homolog, codon optimized for expression in L. reuteri (protein, listed as Lactobacillus mucosae) MKRVKELCKKYQQVIYTLLAVVAIVGVVYFALHGFNSFIKWATTDVGSVADWAGSIGTILAFIAVIWQQGRQENITRAVHVEESRPRFSVTYTPKPQAKTKMLFWGNNRTLSQINTMLNNRNGENYRFINIENISNNVVYDYSIILKYHFYDNSLVRKDYWSSHGLFPRRSIIIVPKFLGTGKDKIGNYIYDELLIKFTTPANEIGFFKMTNVNGNRTDSSFGDSQYYFVRGSHIKRVTAINTDEMIKADSPLCRKLDREFSETTGGTNFGAIGEDGKAY | – | – | 2.9 |
